Experimental data taken from patent US20110158985A1 (published 2011).
Where “and” joins values, the source holds several entries; their conditions need not be identical. Equal values may be shown once. Read-outs that look alike come from different tables or passages of the source.

Columns and labels:
[1] = target: T1, F protein of RSV (Long strain) (RSV (Long strain), UniProt P12568 26-574); assay: cell-based or functional assay
[2] = target: T2, recombinant C-terminally truncated RSV (A2 strain) F protein (RSV (A2 strain), UniProt P03420 26-524); assay: SPR (BIAcore)
T2 construct: extracellular domain; also called truncated F protein; extracellular domain of the F protein from RSV A2
Target sequence in this assay (P03420 137-524): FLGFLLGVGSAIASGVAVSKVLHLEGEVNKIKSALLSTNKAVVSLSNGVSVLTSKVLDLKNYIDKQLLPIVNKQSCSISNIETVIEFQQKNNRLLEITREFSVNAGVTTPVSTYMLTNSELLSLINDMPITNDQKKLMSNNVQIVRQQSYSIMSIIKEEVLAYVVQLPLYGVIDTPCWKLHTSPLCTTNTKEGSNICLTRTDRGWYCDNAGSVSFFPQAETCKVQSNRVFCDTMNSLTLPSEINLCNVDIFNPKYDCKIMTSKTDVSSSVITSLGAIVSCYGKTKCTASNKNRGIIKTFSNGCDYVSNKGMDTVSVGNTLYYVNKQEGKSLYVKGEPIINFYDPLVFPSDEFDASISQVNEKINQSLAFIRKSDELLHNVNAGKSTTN

[3] = target: T3, RSV F glycoprotein (NUF4) (respiratory syncytial virus); assay: SPR (BIAcore), mAb vs NUF4 (2:1)
T3 chain 1: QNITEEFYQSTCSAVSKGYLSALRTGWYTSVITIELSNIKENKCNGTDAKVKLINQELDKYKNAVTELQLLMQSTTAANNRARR
T3 chain 2: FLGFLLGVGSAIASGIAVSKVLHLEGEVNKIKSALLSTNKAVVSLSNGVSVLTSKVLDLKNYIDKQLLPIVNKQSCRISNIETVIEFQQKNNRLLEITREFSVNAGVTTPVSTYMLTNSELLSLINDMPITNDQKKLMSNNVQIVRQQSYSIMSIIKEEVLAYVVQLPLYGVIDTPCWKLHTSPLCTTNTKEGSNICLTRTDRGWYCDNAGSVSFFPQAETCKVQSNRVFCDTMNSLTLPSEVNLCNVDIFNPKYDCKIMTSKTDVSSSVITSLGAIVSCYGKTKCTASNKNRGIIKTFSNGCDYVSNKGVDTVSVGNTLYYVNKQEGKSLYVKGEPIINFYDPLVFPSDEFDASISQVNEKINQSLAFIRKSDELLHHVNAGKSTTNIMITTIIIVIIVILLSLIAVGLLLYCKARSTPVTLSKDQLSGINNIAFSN

[4] = target: T2, recombinant C-terminally truncated RSV …; assay: SPR (BIAcore), IgG over immobilised F
[5] = target: T3, RSV F glycoprotein (NUF4); assay: SPR (BIAcore), mAb vs NUF4 (1:1)
[6] = target: T1, F protein of RSV (Long strain); assay: cell-based or functional assay; remark: listed apart in the source
Bac-F = Bac-F (respiratory syncytial virus); assay: SPR (BIAcore), mAb vs Bac-F (1:1)
[7] = target: T2, recombinant C-terminally truncated RSV …; assay: SPR (BIAcore), IgG over immobilised F; remark: listed apart in the source
Target sequence in this assay (P03420 137-524): as the sequence (P03420 137-524) above

[8] = target: T3, RSV F glycoprotein (NUF4); assay: ITC, NUF4 titrated into antibody, 35 C
Protocol: The binding thermodynamics of the antibodies were determined from ITC measurements using a Microcal, Inc. VP Titration Calorimeter. The VP titration calorimeter consists of a matched pair of sample and reference vessels (1.409 ml) enclosed in an adiabatic enclosure and a rotating stirrer-syringe for titrating ligand solutions into the sample vessel. The ITC measurements were performed at 25° C. and 35° C. The sample vessel contained the antibody in the phosphate buffer while the reference vessel contained just the buffer solution. The phosphate buffer solution was saline 67 mM PO₄ at pH 7.4 from HyClone, Inc. Five or ten μl aliquots of the 0.05 to 0.1 mM NUF4 solution were titrated 3 to 4 minutes apart into the antibody sample solution until the binding was saturated as evident by the lack of a heat exchange signal. […] This was attributed to a heat of dilution of the NUF4 titrant and was subtracted from the titrant heats obtained during the titration prior to analysis of the data.
A non-linear, least square minimization software program from Microcal, Inc., Origin 5.0, was used to fit the incremental heat of the ith titration (ΔQ (i)) of the total heat, Qₜ, to the total titrant concentration, Xₜ, according to the following equations (I),

[9] = target: T1, F protein of RSV (Long strain); assay: cell-based or functional assay; remark: listed apart in the source
Cynomolgus Monkey FcRn = target: T4, Cynomolgus Monkey FcRn (Cynomolgus Monkey, UniProt Q8SPV9 24-290; Q8SPW0 21-119); assay: SPR (BIAcore 3000), FcRn over immobilised IgG, pH 6.0, one-site fit
T4 construct: also called Cynomolgus FcRn
T4 sequence (Q8SPV9 24-290 limits assumed, chain 1 of 2): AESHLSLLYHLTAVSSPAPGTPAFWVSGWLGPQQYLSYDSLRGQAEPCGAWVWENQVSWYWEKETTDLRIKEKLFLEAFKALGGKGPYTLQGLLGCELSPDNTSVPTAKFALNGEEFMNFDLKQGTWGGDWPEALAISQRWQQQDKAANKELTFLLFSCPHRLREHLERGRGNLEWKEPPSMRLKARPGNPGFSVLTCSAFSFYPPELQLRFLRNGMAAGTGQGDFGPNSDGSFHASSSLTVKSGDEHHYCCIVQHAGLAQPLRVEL
T4 sequence (Q8SPW0 21-119 limits assumed, chain 2 of 2): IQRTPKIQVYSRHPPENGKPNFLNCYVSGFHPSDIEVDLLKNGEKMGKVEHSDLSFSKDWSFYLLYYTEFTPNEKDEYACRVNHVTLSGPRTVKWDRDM
Protocol: (§1) Human and Cynomolgus Monkey FcRn were buffer-exchanged against 50 mM Phosphate Buffered Saline (PBS) pH 6.0 or 7.4 containing 0.05% Tween 20. Dilutions were made in the same buffers. […] FcRn was also flowed over an uncoated cell and the sensorgrams from these blank runs subtracted from those obtained with IgG-coupled chips. Runs were analyzed using the software BIAevaluation 3.1 (Pharmacia). Dissociation constants (Kds) were determined by fitting the binding isotherms to a one-site binding model using GraphPad Prism (GraphPad Software, Inc., CA). Errors were estimated as the mean standard deviation for at least 2 independent determinations.

human FcRn [10] = target: T5, human FcRn (human); assay: as above
T5 construct: also called recombinant human FcRn
T5 sequence (chain, as listed by the source limits assumed, chain 1 of 2): as the sequence (Q8SPV9 24-290 limits assumed, chain 1 of 2) above, with D39N, Q44E, S99G, G189S, N190S, M217L counted along it
T5 sequence (P61769 21-119 limits assumed, chain 2 of 2): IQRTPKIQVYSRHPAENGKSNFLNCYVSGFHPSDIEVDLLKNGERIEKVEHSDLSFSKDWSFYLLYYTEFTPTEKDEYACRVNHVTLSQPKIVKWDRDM
Protocol: as §1

[11] = target: T2, recombinant C-terminally truncated RSV …; assay: SPR (BIAcore 3000), F immobilised at low density, 1:1 Langmuir fit
Target sequence in this assay (P03420 137-524): as the sequence (P03420 137-524) above
Protocol: Purified F protein was covalently coupled to an N-hydroxysuccinimide-N-ethyl-N′-[3-diethylaminopropyl]-carbodiimide (EDC/NHS) activated CM5 sensor chip at a low protein density according to the manufacturer's protocol; unreacted active ester groups were blocked with 1 M ethanolamine. For reference purposes, a blank surface, containing no antigen, was prepared under identical immobilization conditions.
For kinetic measurements, a serial 2-fold dilution series of each mAb from 100 nm-0.2 nm, made in instrument buffer (HBS/Tween-20, BIAcore, Inc.), was injected over the F-protein and reference cell surfaces, which are connected in series. In each analysis, following the dissociation phase, the remaining bound antibody was removed from the sensor chip by passing a brief pulse of 100 mM HCl over the surface. Once an entire data set was collected, the resulting binding curves were globally fitted to a 1:1 Langmuir binding model using BIAevaluation software (BIAcore, Inc., Piscataway, N.J.). This algorithm calculates both the association rate (kₒₙ) and the dissociation rate (koff), from which the apparent equilibrium binding constant, Kd, for each antibody was deduced as the ratio of the two rate constants, koff/kₒₙ.

[12] = target: T1, F protein of RSV (Long strain); assay: cell-based or functional assay; remark: listed apart in the source
murine FcRn [13] = target: T6, murine FcRn (mouse, UniProt P01887 21-119); assay: SPR (BIAcore 3000), FcRn over immobilised IgG1, pH 6.0, Scatchard
T6 construct: also called mouse FcRn; muFcRn
T6 sequence: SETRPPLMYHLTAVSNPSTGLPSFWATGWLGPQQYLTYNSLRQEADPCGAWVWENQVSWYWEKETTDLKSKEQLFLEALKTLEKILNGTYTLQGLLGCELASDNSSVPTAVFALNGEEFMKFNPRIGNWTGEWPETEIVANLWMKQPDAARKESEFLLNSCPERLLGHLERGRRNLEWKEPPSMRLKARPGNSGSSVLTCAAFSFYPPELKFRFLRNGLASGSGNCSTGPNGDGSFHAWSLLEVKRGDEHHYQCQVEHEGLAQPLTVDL
T6 sequence (b2m): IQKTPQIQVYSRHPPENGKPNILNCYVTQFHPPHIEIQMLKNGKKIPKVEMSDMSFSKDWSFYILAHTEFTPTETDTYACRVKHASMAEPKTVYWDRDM
Protocol: (§2) IgG1 variants was monitored by surface plasmon resonance detection using a BIAcore 3000 instrument (Pharmacia Biosensor, Uppsala, Sweden). […] The protein concentrations ranged from 3-5 μg/ml in 10 mM sodium acetate, pH 5.0. The activation period was set for 7 minutes at a flow rate of 10 μl/min and the immobilization period was set to between 10 and 20 minutes at a flow rate of 10 μl/min. […] Human and murine FcRn were buffer exchanged against 50 mM PBS buffer pH 6.0 containing 0.05% Tween 20. Dilutions were made in the same buffer. All binding experiments were performed at 25° C. with concentrations ranging from 120 to 1 μg/ml at a flow rate of 5 to 10 μl/min; data were collected for 25 to 50 minutes and three 1-minute pulses of PBS buffer pH 7.2 were used to regenerate the surfaces. FcRn was also flowed over an uncoated cell and the sensorgrams from these blank runs subtracted from those obtained with IgG1-coupled chips. Runs were analyzed using the software BIAevaluation 3.1 (Pharmacia). Association constants (KAs) were determined from Scatchard analysis by measuring the concentration of free reactants and complex at equilibrium after correction for nonspecific binding.

human FcRn [14] = target: T5, human FcRn; assay: as above
Protocol: as §2

[15] = target: T1, F protein of RSV (Long strain); assay: cell-based or functional assay; remark: listed apart in the source
murine FcRn [16] = target: T6, murine FcRn; assay: SPR (BIAcore), murine FcRn over immobilised IgG1, Scatchard
Protocol: Runs were analyzed using the software BIAevaluation 3.1 (Pharmacia). Association constants (KAs) were determined from Scatchard analysis by measuring the concentration of free reactants and complex at equilibrium after correction for nonspecific binding. […] The concentration of free analyte (human or murine FcRn) is equal to the bulk analyte concentration since analyte is constantly replenished during sample injection. The concentration of free ligand on the surface of the sensor chip can be derived from the concentration of the complex and from the total binding capacity of the surface as KA=Req/C(Rₘₐₓ−Req) where C is the free analyte concentration, Req is the steady-state response, and Rₘₐₓ is the total surface binding capacity. Rearranging, the equation reads: Req/C=KA Rₘₐₓ−KA Req.
To estimate apparent KAs, concentrations of FcRn ranging from 120 to 1 μg/ml were used. In all cases, equilibrium (or near-equilibrium) binding levels were reached within 50 minutes. To estimate the increase in RU resulting from the non specific effect of protein on the bulk refractive index, binding of FcRn to an uncoated cell was measured and the sensorgrams from these blank runs subtracted from those obtained with IgG1-coupled chips. The plots were all linear, and apparent KAs were calculated from the relevant slopes. […]

B1: A12a6 IgG (antibody, V domains shown)
VH: QVTLRESGPALVKPTQTLTLTCTFSGFSLSTAGMSVGWIRQPPGKALEWLADIWWDGKKDYNPSLKDRLTISKDTSKNQVVLKVTNMDPADTATYYCARDMIFNFYFDVWGQGTTVTVSS
VL: DIQMTQSPSTLSASVGDRVTITCSASSRVGYMHWYQQKPGKAPKLLIYDTFKLSSGVPSRFSGSGSGTEFTLTISSLQPDDFATYYCFQGSGYPFTFGGGTKVEIKR
[1]
  Mean IC50 (Control): 0.0354 µg/mL
  Mean IC50 (Curve): 0.0357 µg/mL
[2]
  fold improvement in koff upon IgG conversion (against its Fab): 13 fold
[3]
  Kd: 1.87 nM
  fold in parentheses (palivizumab = 1): 167 fold
  koff: 0.000408 s⁻¹
  kon: 218000 M⁻¹ s⁻¹
[4]
  Kd: 0.036 nM
  koff: 1.65e-05 s⁻¹
  kon: 460000 M⁻¹ s⁻¹
[5]
  Kd: 0.73 nM
  fold in parentheses (palivizumab = 1): 12 fold
  koff: 0.000291 s⁻¹
  kon: 400000 M⁻¹ s⁻¹
[6]
  Microneutralization IC50, IgG: 0.0357 µg/ml and 0.24 nM
Bac-F
  Kd: 0.04 nM
  fold in parentheses (palivizumab = 1): 98 fold

B2: P11d4 IgG (antibody, V domains shown)
VH: QVTLRESGPALVKPTQTLTLTCTFSGFSLSTPGMSVGWIRQPPGKALEWLADIWWDGKKHYNPSLKDRLTISKDTSKNQVVLKVTNMDPADTATYYCARDMIFNWYFDVWGQGTTVTVSS
VL: DIQMTQSPSTLSASVGDRVTITCSPSSRVGYMHWYQQKPGKAPKLLIYDTMRLASGVPSRFSGSGSGTEFTLTISSLQPDDFATYYCFQGSGYPFTFGGGTKVEIKR
[1]
  Mean IC50 (Control): 0.0289 µg/mL
  Mean IC50 (Curve): 0.0217 µg/mL
[3]
  Kd: 8.55 nM
  fold in parentheses (palivizumab = 1): 36 fold
  koff: 0.00313 s⁻¹
  kon: 366000 M⁻¹ s⁻¹
[7]
  fold improvement in kon over palivizumab: 4 fold
[4]
  Kd: 0.62 nM
  koff: 0.000289 s⁻¹
  kon: 466000 M⁻¹ s⁻¹
[5]
  Kd: 0.85 nM
  fold in parentheses (palivizumab = 1): 10 fold
  koff: 0.000766 s⁻¹
  kon: 904000 M⁻¹ s⁻¹
[6]
  Microneutralization IC50, IgG: 0.0217 µg/ml and 0.14 nM
Bac-F
  Kd: 0.62 nM
  fold in parentheses (palivizumab = 1): 6 fold

B3: A4B4 IgG (antibody, V domains shown)
VH: QVTLRESGPALVKPTQTLTLTCTFSGFSLSTAGMSVGWIRQPPGKALEWLADIWWDDKKHYNPSLKDRLTISKDTSKNQVVLKVTNMDPADTATYYCARDMIFNFYFDVWGQGTTVTVSS
VL: DIQMTQSPSTLSASVGDRVTITCSASSRVGYMHWYQQKPGKAPKLLIYDTFFLDSGVPSRFSGSGSGTEFTLTISSLQPDDFATYYCFQGSGYPFTFGGGTKVEIKR
[1]
  Mean IC50 (Control): 0.0154 µg/mL
  Mean IC50 (Curve): 0.0171 µg/mL
[3]
  Kd: 2 nM
  fold in parentheses (palivizumab = 1): 156 fold
  koff: 0.000401 s⁻¹
  kon: 203000 M⁻¹ s⁻¹
[7]
  fold improvement in affinity over palivizumab: 125 fold
  fold improvement in koff over palivizumab: 28 fold
  fold improvement in kon over palivizumab: 4 fold
[4]
  Kd: 0.027 nM
  koff: 1.51e-05 s⁻¹
  kon: 553000 M⁻¹ s⁻¹
[8]
  Ka: 2.69e+08 M⁻¹
  Kd: ~3.7 nM
  ΔHb: 22.2 kcal/mol
[5]
  Kd: 0.57 nM
  fold in parentheses (palivizumab = 1): 15 fold
  koff: 0.000282 s⁻¹
  kon: 496000 M⁻¹ s⁻¹
[6]
  Microneutralization IC50, IgG: 0.104 µg/ml and 0.069 nM

B4: A4B4L1FR-S28R (MEDI-524) (antibody, human IgG1, kappa)
heavy: not shown
light: DIQMTQSPSTLSASVGDRVTITCSASSRVGYMHWYQQKPGKAPKLLIYDTSKLASGVPSRFSGSGSGTEFTLTISSLQPDDFATYYCFQGSGYPFTFGGGTKVEIKRTVAAPSVFIFPPSDEQLKSGTASVVCLLNNFYPREAKVQWKVDNALQSGNSQESVTEQDSKDSTYSLSSTLTLSKADYEKHKVYACEVTHQGLSSPVTKSFNRGEC
[9]
  RSV microneutralization, average IC50: 0.018 µg/mL
Cynomolgus Monkey FcRn
  Kd: 1200 nM
Human FcRn [10]
  Kd: 2250 nM

B5: palivizumab (IgG) (antibody)
heavy: not shown
light: DIQMTQSPSTLSASVGDRVTITCKCQLSVGYMHWYQQKPGKAPKLLIYDTSKLASGVPSRFSGSGSGTEFTLTISSLQPDDFATYYCFQGSGYPFTFGGGTKLEIKRTVAAPSVFIFPPSDEQLKSGTASVVCLLNNFYPREAKVQWKVDNALQSGNSQESVTEQDSKDSTYSLSSTLTLSKADYEKHKVYACEVTHQGLSSPVTKSFNRGEC
notes: also called SYNAGIS
[1]
  Mean IC50 (Control): 0.535 µg/mL
  Mean IC50 (Curve): 0.453 µg/mL
[4]
  Kd: 3.39 nM
[9]
  Microneutralization IC50: 3.6 nM
  RSV microneutralization, average IC50: 0.315 µg/mL
[11]
  Kd: 3.46 nM
[12]
  IC50: 3.57 nM
[6]
  Microneutralization IC50, IgG: 0.453 µg/ml and 3.02 nM
Bac-F
  Kd: 3.9 nM
Murine FcRn [13]
  Kd: 269 nM
Human FcRn [14]
  Kd: 2530 nM
[15]
  Microneutralization IC50, IgG: 0.453 µg/ml and 3.02 nM

B6: human IgG1 MEDI-493 (palivizumab) M252Y/S254T/T256E (antibody)
heavy: QVTLRESGPALVKPTQTLTLTCTFSGFSLSTSGMSVGWIRQPPGKALEWLADIWWDDKKDYNPSLKSRLTISKDTSKNQVVLKVTNMDPADTATYYCARSMITNWYFDVWGAGTTVTVSSASTKGPSVFPLAPSSKSTSGGTAALGCLVKDYFPEPVTVSWNSGALTSGVHTFPAVLQSSGLYSLSSVVTVPSSSLGTQTYICNVNHKPSNTKVDKRVEPKSCDKTHTCPPCPAPELLGGPSVFLFPPKPKDTLYITREPEVTCVVVDVSHEDPEVKFNWYVDGVEVHNAKTKPREEQYNSTYRVVSVLTVLHQDWLNGKEYKCKVSNKALPAPIEKTISKAKGQPREPQVYTLPPSREEMTKNQVSLTCLVKGFYPSDIAVEWESNGQPENNYKTTPPVLDSDGSFFLYSKLTVDKSRWQQGNVFSCSVMHEALHNHYTQKSLSLSPGK
light: DIQMTQSPSTLSASVGDRVTITCKCQLSVGYMHWYQQKPGKAPKLLIYDTSKLASGVPSRFSGSGSGTEFTLTISSLQPDDFATYYCFQGSGYPFTFGGGTKLEIKRTVAAPSVFIFPPSDEQLKSGTASVVCLLNNFYPREAKVQWKVDNALQSGNSQESVTEQDSKDSTYSLSSTLTLSKADYEKHKVYACEVTHQGLSSPVTKSFNRGEC
notes: also called IgG1/M252Y/S254T/T256E
Murine FcRn [16]
  Kd: 24 nM
Murine FcRn [13]
  Kd: 27 nM
  ΔΔG: 1.4 kcal/mol
